# Reference: paper PMC4434323
# Experiments:
# [1] = target: T1, skn-1 (T19E7.2) (Caenorhabditis elegans) (UniProt P34707)
# T1 sequence: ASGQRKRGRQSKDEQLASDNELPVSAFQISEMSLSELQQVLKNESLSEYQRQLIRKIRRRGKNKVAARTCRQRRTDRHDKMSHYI
# [2] = target: T2, mbr-1 (T01C1.2) (Caenorhabditis elegans) (UniProt G5EGQ5)
# T2 sequence: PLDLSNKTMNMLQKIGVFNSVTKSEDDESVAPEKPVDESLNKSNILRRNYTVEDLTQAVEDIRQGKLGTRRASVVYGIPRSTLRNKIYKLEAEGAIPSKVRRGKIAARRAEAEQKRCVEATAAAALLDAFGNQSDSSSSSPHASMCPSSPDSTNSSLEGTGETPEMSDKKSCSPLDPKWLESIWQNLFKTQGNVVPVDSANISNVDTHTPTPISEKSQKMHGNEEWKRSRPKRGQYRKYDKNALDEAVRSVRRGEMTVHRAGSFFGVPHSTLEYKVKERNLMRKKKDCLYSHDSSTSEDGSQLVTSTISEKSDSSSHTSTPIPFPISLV
# [3] = target: T3, nhr-66 (T09A12.4) (Caenorhabditis elegans) (UniProt H2KYJ8)
# T3 sequence: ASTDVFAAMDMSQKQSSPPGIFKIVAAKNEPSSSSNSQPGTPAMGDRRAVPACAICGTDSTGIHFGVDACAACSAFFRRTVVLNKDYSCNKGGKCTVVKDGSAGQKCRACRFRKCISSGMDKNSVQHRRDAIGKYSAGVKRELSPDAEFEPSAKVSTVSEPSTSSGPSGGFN
# [4] = target: T4, nhr-70 (Y51A2D.17) (Caenorhabditis elegans) (UniProt G5EEL3)
# T4 sequence: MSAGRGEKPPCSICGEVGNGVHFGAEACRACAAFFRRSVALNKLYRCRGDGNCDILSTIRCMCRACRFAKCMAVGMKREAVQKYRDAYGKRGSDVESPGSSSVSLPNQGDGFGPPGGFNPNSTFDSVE
# [5] = target: T5, odr-7 (T18D3.2) (Caenorhabditis elegans) (UniProt P41933)
# T5 sequence: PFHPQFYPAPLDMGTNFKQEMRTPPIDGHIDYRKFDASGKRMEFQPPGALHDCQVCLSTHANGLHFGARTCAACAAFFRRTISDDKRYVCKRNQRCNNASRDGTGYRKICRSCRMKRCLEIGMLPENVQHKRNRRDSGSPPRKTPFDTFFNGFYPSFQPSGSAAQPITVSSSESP
# [6] = target: T6, nhr-142 (F44E7.8) (Caenorhabditis elegans) (UniProt J7SF93)
# T6 sequence: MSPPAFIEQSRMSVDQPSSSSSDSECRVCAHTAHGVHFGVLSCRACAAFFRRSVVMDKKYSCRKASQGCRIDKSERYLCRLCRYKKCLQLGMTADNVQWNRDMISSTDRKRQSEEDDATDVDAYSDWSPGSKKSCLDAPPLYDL
# [7] = target: T7, nhr-232 (Y22F5A.1) (Caenorhabditis elegans) (UniProt A0A486WVR6)
# T7 sequence: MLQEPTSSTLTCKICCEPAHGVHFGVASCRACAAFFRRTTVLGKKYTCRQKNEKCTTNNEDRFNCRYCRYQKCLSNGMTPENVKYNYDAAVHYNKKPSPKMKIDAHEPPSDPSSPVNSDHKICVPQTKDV
# [8] = target: T8, nhr-42 (C33G8.6) (Caenorhabditis elegans) (UniProt O76828)
# T8 sequence: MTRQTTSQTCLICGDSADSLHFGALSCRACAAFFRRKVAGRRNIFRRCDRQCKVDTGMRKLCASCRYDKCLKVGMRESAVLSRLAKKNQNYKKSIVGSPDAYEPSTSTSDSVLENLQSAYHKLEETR
sequence,measurement,setting,value
ATGACAAT (double strand) [8-mer ATGACAAT],binding signal (PBM E-score (-0.5 to 0.5)),[1],0.495
GTCATCAC (double strand) [8-mer GTCATCAC],binding signal (PBM E-score (-0.5 to 0.5)),[1],0.492
AGGCCCCT (double strand) [8-mer AGGCCCCT],binding signal (PBM E-score (-0.5 to 0.5)),[2],0.491
GCTACAAA (double strand) [8-mer GCTACAAA],binding signal (PBM E-score (-0.5 to 0.5)),[3],0.482
same,binding signal (PBM E-score (-0.5 to 0.5)),[4],0.489
same,binding signal (PBM E-score (-0.5 to 0.5)),[5],0.462
AAGGCCCC (double strand) [8-mer AAGGCCCC],binding signal (PBM E-score (-0.5 to 0.5)),[2],0.489
TGATGACA (double strand) [8-mer TGATGACA],binding signal (PBM E-score (-0.5 to 0.5)),[1],0.495
TAGTCACA (double strand) [8-mer TAGTCACA],binding signal (PBM E-score (-0.5 to 0.5)),[6],0.493
same,binding signal (PBM E-score (-0.5 to 0.5)),[7],0.482
same,binding signal (PBM E-score (-0.5 to 0.5)),[8],0.494
GGGGGCCA (double strand) [8-mer GGGGGCCA],binding signal (PBM E-score (-0.5 to 0.5)),[2],0.495
GGGGCCTA (double strand) [8-mer GGGGCCTA],binding signal (PBM E-score (-0.5 to 0.5)),[2],0.487
ATGACAAA (double strand) [8-mer ATGACAAA],binding signal (PBM E-score (-0.5 to 0.5)),[1],0.493
GATGATAA (double strand) [8-mer GATGATAA],binding signal (PBM E-score (-0.5 to 0.5)),[1],0.488
ACTACAAT (double strand) [8-mer ACTACAAT],binding signal (PBM E-score (-0.5 to 0.5)),[3],0.488
same,binding signal (PBM E-score (-0.5 to 0.5)),[4],0.49
same,binding signal (PBM E-score (-0.5 to 0.5)),[5],0.49
GAGGGGCC (double strand) [8-mer GAGGGGCC],binding signal (PBM E-score (-0.5 to 0.5)),[2],0.489
ATGTCATC (double strand) [8-mer ATGTCATC],binding signal (PBM E-score (-0.5 to 0.5)),[1],0.494
GATGACAA (double strand) [8-mer GATGACAA],binding signal (PBM E-score (-0.5 to 0.5)),[1],0.498
ATTGTGAC (double strand) [8-mer ATTGTGAC],binding signal (PBM E-score (-0.5 to 0.5)),[6],0.494
same,binding signal (PBM E-score (-0.5 to 0.5)),[7],0.489
AGACTACA (double strand) [8-mer AGACTACA],binding signal (PBM E-score (-0.5 to 0.5)),[3],0.487
same,binding signal (PBM E-score (-0.5 to 0.5)),[4],0.486
GGATGACA (double strand) [8-mer GGATGACA],binding signal (PBM E-score (-0.5 to 0.5)),[1],0.489
GGCTACAA (double strand) [8-mer GGCTACAA],binding signal (PBM E-score (-0.5 to 0.5)),[4],0.492
same,binding signal (PBM E-score (-0.5 to 0.5)),[5],0.467
AATTGTAG (double strand) [8-mer AATTGTAG],binding signal (PBM E-score (-0.5 to 0.5)),[5],0.489
AGGATGAC (double strand) [8-mer AGGATGAC],binding signal (PBM E-score (-0.5 to 0.5)),[1],0.489
GACTACAC (double strand) [8-mer GACTACAC],binding signal (PBM E-score (-0.5 to 0.5)),[3],0.484
same,binding signal (PBM E-score (-0.5 to 0.5)),[4],0.49
CGGCTACA (double strand) [8-mer CGGCTACA],binding signal (PBM E-score (-0.5 to 0.5)),[4],0.488
TGTCACAA (double strand) [8-mer TGTCACAA],binding signal (PBM E-score (-0.5 to 0.5)),[6],0.49
same,binding signal (PBM E-score (-0.5 to 0.5)),[7],0.474
ATACAATA (double strand) [8-mer ATACAATA],binding signal (PBM E-score (-0.5 to 0.5)),[5],0.461
AGTCACAA (double strand) [8-mer AGTCACAA],binding signal (PBM E-score (-0.5 to 0.5)),[6],0.498
same,binding signal (PBM E-score (-0.5 to 0.5)),[7],0.497
same,binding signal (PBM E-score (-0.5 to 0.5)),[8],0.489
ATGATGAC (double strand) [8-mer ATGATGAC],binding signal (PBM E-score (-0.5 to 0.5)),[1],0.497
CGGGGGGC (double strand) [8-mer CGGGGGGC],binding signal (PBM E-score (-0.5 to 0.5)),[2],0.487
AGGGGGGC (double strand) [8-mer AGGGGGGC],binding signal (PBM E-score (-0.5 to 0.5)),[2],0.491
AGGGGCCA (double strand) [8-mer AGGGGCCA],binding signal (PBM E-score (-0.5 to 0.5)),[2],0.492
GGACACAA (double strand) [8-mer GGACACAA],binding signal (PBM E-score (-0.5 to 0.5)),[6],0.493
same,binding signal (PBM E-score (-0.5 to 0.5)),[7],0.473
AGGCCCCC (double strand) [8-mer AGGCCCCC],binding signal (PBM E-score (-0.5 to 0.5)),[2],0.495
